Laboratory results published in paper PMC11231100 (2024).

How the values were obtained:
CD47 [1] = molecular target: T1, CD47 (human (endogenous in Jurkat and Reh), UniProt Q08722 19-323); assay: FACS; competition with SIRPα-mFc on Jurkat cells (CD38low/CD47+)
CD47 [2] = molecular target: T1, CD47; assay: FACS; competition with SIRPα-mFc on Reh cells (CD38high/CD47+)

IC50 (CD47 [1]): 0.0977 µg/mL
IC50 (CD47 [2]): 0.216 µg/mL
B1: IMM01 (SIRPα Fc fusion protein) (Fc fusion)
chain: EEELQVIQPDKSVLVAAGETATLRCTATSLIPVGPIQWFRGAGPGRELIYNQKEGHFPRVTTVSDLTKRNNMDFSIRIGNITPADAGTYYCVKFRKGSPDDVEFKSGAGTELSVRAKP
modifications: SIRPα IgV domain (SD1), limits by convention (complete V domain through its last strand, just before the first C1 domain); dimeric through an Fc that is left out; allelic variant and any engineered substitution not given
